Results published in the supplement of paper PMC9170038.

Test system: MS2 coat protein
Experiment: apparent KD of MS2 coat protein; designed switch direction (-1 OFF switch, 1 ON switch): -1; higher = weaker reporter binding
Method in brief: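 For each design, the apparent KD is the median over clusters of curves fitted to normalised cluster fluorescence. Clusters held RNA switches with common flanks, transcribed on Illumina chips by stalled E. coli RNA polymerase. These were titrated with SNAP-549-labelled MS2 coat protein, doubling from 0.7 or 1.5 nM to 3 µM, without input, with 200 uM small-molecule ligand, or with an oligonucleotide input.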

[1] = Eterna round: R95, input ligand: FMN 200 uM
[2] = Eterna round: R95, input ligand: microRNA oligo, concentration not stated
[3] = Eterna round: R95, input ligand: none
[4] = input ligand: microRNA oligo, concentration not stated

GGCCCUAAGGUCAGAUCCACAAGCUUUUUGCUCGUUUUAACAUGAGGAUCACCCAUGUCUAGUGGAUUUGAUCCUCU [Sensor v3, turn-off variant 2 (MOD of Indiso v.8)] (puzzle: Sensor v3, turn-off variant 2)
apparent KD of MS2 coat protein [1]: 27.9 nM | apparent KD of MS2 coat protein [2]: 9.69 nM | apparent KD of MS2 coat protein [3]: 33.5 nM

CGAUGAGCGGUGAGGAUAUCGUGUUCGAAAGAACGUGAGAAGGCACAUGAGGAUCACCCAUGUGAUCCUCAUCG [Omei Ex4B A34] (Eterna round: R97, puzzle: Brourd's mod of Exclusion 4)
apparent KD of MS2 coat protein (input ligand: FMN 200 uM): 21.4 nM | apparent KD of MS2 coat protein (input ligand: none): 15.2 nM

CAGUACUGAGGAUAUACAUGAGGAUCACCCAUGUGUCCUAUAUUAGGAAACUAGGUAUGUAGAAGGCAGUACUG [Omei Ex3 Mod of Eli 4.27 v5] (Eterna round: R97, puzzle: Exclusion 3)
apparent KD of MS2 coat protein (input ligand: FMN 200 uM): 485 nM | apparent KD of MS2 coat protein (input ligand: none): 340 nM

CCGGCUGCUGUGAGGAUAUGCCCGCGCGCCCGCGGGCAGAAGGCACAUGAGGAUCACCCAUGUCCUGCGGUCCC [salish99_bmx4_r4_120] (Eterna round: R97, puzzle: Brourd's mod of Exclusion 4)
apparent KD of MS2 coat protein (input ligand: FMN 200 uM): 122 nM | apparent KD of MS2 coat protein (input ligand: none): 24.1 nM

AGGAAGCAAGGAUAUACGAGGAGAAGGUGUCCAUCUAAAUGACAUGAGGAUCACCCAUGUAGAAGGUGCGAGAA [JR_Exclu2_Sub050] (puzzle: Exclusion 2)
apparent KD of MS2 coat protein [1]: 112 nM | apparent KD of MS2 coat protein [2]: 47.4 nM | apparent KD of MS2 coat protein [3]: 34.5 nM

UUUUUGUGAGGAUAUUAGUAGUAAAAAAAUAAAAUUACUACUGAGAAGGCACAUGAGGAUCACCCAUGUUCCUC [salish99_ex4_r3_040] (puzzle: Exclusion 4)
apparent KD of MS2 coat protein [2]: 34.9 nM

UAUUAAACAUAGGAUAUCGAAUAUAUCAUUUAACGAGAAGGAUGAACAUGAGGAUCACCCAUGUGGUAUCAUGG [Mat - Exclusion 6 - JL Mod - D13] (puzzle: Exclusion 6)
apparent KD of MS2 coat protein [1]: 196 nM | apparent KD of MS2 coat protein [2]: 269 nM | apparent KD of MS2 coat protein [3]: 410 nM

UUAAUGGUUGUGAGGAUAUCGGAUAGAUAGAUAUUCGAGAAGGCACAUGAGGAUCACCCAUGUGUGAUUAGAAA [JR_BMEx4_Sub049] (Eterna round: R97, puzzle: Brourd's mod of Exclusion 4)
apparent KD of MS2 coat protein (input ligand: FMN 200 uM): 260 nM | apparent KD of MS2 coat protein (input ligand: none): 24.6 nM

GUGCAAUGAGGAUAUACGUAGGUGAACAUCUGUGUGCUCCUACAUGAGGAUCACCCAUGUAGAAGGCAUGUCAC [LRO-Excl2-17] (puzzle: Exclusion 2)
apparent KD of MS2 coat protein [2]: 13.1 nM

ACAUGUCCUGAGGAUAUCAAAGUCCUCCCGACAUGAGAAGGCAGGACAUGAGGAUCACCCAUGUGGAGCAGGGA [Aarorbeti] (Eterna round: R97, puzzle: Exclusion 6)
apparent KD of MS2 coat protein (input ligand: FMN 200 uM): 420 nM | apparent KD of MS2 coat protein (input ligand: none): 111 nM

AGAAGUGCCGAGGAUAUCCAGGCAAUCUCGUUCGGAGAAGGCGGCACUUGAGGAUCACCCAAGUGCUCCAAAAG [Essoatxe] (Eterna round: R97, puzzle: Exclusion 6)
apparent KD of MS2 coat protein (input ligand: FMN 200 uM): 59.2 nM | apparent KD of MS2 coat protein (input ligand: none): 18.9 nM

CCUCCGGUACGAGGAUAUCUGACGGCCGCCGGAGGAGAAGGCGUACAUGAGGAUCACCCAUGUCCAGCGUGCACCACGCUGGUU [Usbius] (Eterna round: R96, puzzle: Exclusion NG 1)
apparent KD of MS2 coat protein (input ligand: FMN 200 uM): 119 nM | apparent KD of MS2 coat protein [4]: 38.1 nM | apparent KD of MS2 coat protein (input ligand: none): 44.9 nM

CCUCUACAUGAGGAUCACCCAUGUCAGGAUAUGCGAAUUUCAUCAAAAGAUGAAAUUUGCAGAAGGGACUAAGC [Omei Ex1 A34] (Eterna round: R97, puzzle: Exclusion 1)
apparent KD of MS2 coat protein (input ligand: FMN 200 uM): 282 nM | apparent KD of MS2 coat protein (input ligand: none): 246 nM

AUGGUGUCAGGAUAUCUCAAAGCACAGAAUGAGCGGCUACGGGAGAAGGGACAUGAGGAUCACCCAUGUACUCU [EX4 B.29] (Eterna round: R97, puzzle: Exclusion 4)
apparent KD of MS2 coat protein (input ligand: FMN 200 uM): 19.9 nM | apparent KD of MS2 coat protein (input ligand: none): 18.6 nM

GUGUUGCGAGGAUAUAUAAGGGUAUGUUCUUAGGAUAUGGAACAUGAGGAUCACCCAUGUAGAAGGUGCAUAAC [JR_Ex2_Sub046] (Eterna round: R97, puzzle: Exclusion 2)
apparent KD of MS2 coat protein (input ligand: FMN 200 uM): 459 nM | apparent KD of MS2 coat protein (input ligand: none): 761 nM

AAUUUACAUGAGGAUCACCCAUGUGAGGAUAUGAUACUAUGUACUUCGGUACAUAGUAUCAGAAGGCAUGUGGG [Ex1-3: 93] (puzzle: Exclusion 1)
apparent KD of MS2 coat protein [2]: 19.1 nM

UUGAGUCGGAAGGAUAUGCGAGCCGCCGGGUCAGCAGAAGGUCCGACAUGAGGAUCACCCAUGUUGGGCGAGGA [EX6 B.10] (Eterna round: R97, puzzle: Exclusion 6)
apparent KD of MS2 coat protein (input ligand: FMN 200 uM): 351 nM | apparent KD of MS2 coat protein (input ligand: none): 25.2 nM

ACUCACGCAGGAUAUACAUGAGGAUCACCCAUGUUCGAAGGGCGUGGGCACAAAGUCUGUAGAAGGGCGAAAAU [Zave] (Eterna round: R97, puzzle: Exclusion 3)
apparent KD of MS2 coat protein (input ligand: FMN 200 uM): 19.2 nM | apparent KD of MS2 coat protein (input ligand: none): 16.3 nM

AGUACUAACACGAUAGUGUUAGUACUAUAAGCUUGUGUUACAUGAGGAUCACCCAUGUCCUCAUAAGCUCGUCUUGA [Mat - Sensor v3 - Turn-off var 2 - D92] (puzzle: Sensor v3, turn-off variant 2)
apparent KD of MS2 coat protein [1]: 33.3 nM | apparent KD of MS2 coat protein [2]: 467 nM | apparent KD of MS2 coat protein [3]: 40.6 nM

AUAUAGAUAGUCAGGAUAUGCUAGUGAUAACAGUAGUAGAAGGGACAUGAGGAUCACCCAUGUAGAUACUGCAC [Brourd's EX4 #3] (Eterna round: R97, puzzle: Brourd's mod of Exclusion 4)
apparent KD of MS2 coat protein (input ligand: FMN 200 uM): 19.6 nM | apparent KD of MS2 coat protein (input ligand: none): 19.3 nM

CAUAUUCGAGGAUAUGCCUGAUGUCCUUAUGGAGCCCAUUCACAUGAGGAUCACCCAUGUAGAAGGCGGAUGCG [Eternabot (L1) Solution 37] (Eterna round: R97, puzzle: Exclusion 2)
apparent KD of MS2 coat protein (input ligand: FMN 200 uM): 31.2 nM | apparent KD of MS2 coat protein (input ligand: none): 24.8 nM

GUACUAAAGCUUUGCUUUAGUCGUACAUGAGGAUCACCCAUGUAGGAUAUGGUAAGCAUAGCUUACUAGAAGGAUAGAGUGAUC [Mat - Exclusion NG 3 - Mod of JL - D66] (Eterna round: R96, puzzle: Exclusion NG 3)
apparent KD of MS2 coat protein (input ligand: FMN 200 uM): 285 nM | apparent KD of MS2 coat protein [4]: 146 nM | apparent KD of MS2 coat protein (input ligand: none): 145 nM

AGUACUAACACGAAAGUGUUAGUACUAUAAGUUUGUGUUACAUGAGGAUCACCCAUGUCCUCAUAAGCUCGUCUUGU [Mat - Sensor v3 - Turn-off var 2 - D95] (puzzle: Sensor v3, turn-off variant 2)
apparent KD of MS2 coat protein [1]: 911 nM | apparent KD of MS2 coat protein [2]: 199 nM | apparent KD of MS2 coat protein [3]: 626 nM

GGAUGGCGAGGAUAUACAUGAGGAUCACCCAUGUGAGAGAAAUAAGUGAGGAAGAAAAGUAGAAGGCGCAGACG [Mat - Exclusion 3 - Mod of Salish D45] (puzzle: Exclusion 3)
apparent KD of MS2 coat protein [1]: 11.1 nM | apparent KD of MS2 coat protein [2]: 55.7 nM | apparent KD of MS2 coat protein [3]: 53.1 nM

AGAAGUAGUAACCGAUCCUACAUGAGGAUCACCCAUGUAGCAAGACGUGCACGCGAAGCUCGUCAGACUACCAGAUG [salish99_TOv1_r3_020] (puzzle: Sensor v3, turn-off variant 1)
apparent KD of MS2 coat protein [1]: 159 nM | apparent KD of MS2 coat protein [2]: 252 nM | apparent KD of MS2 coat protein [3]: 242 nM

GUCCUACAUGAGGAUCACCCAUGUAAGGAUAUGCUAGCGGUCGGAUGACUGACUGCUAGCAGAAGGUACAUGAU [Mat - Mod of JL D78] (puzzle: Exclusion 1)
apparent KD of MS2 coat protein [2]: 15.5 nM

UAUUAGCAAGCAAGAUCCCACAUGAGGAUCACCCAUGUGCUCGUCUUAUAAGGUACUGUGACGAGAGUCACGGUACC [Mat - Sensor, turn-off var - Eli Mod - D47] (Eterna round: R97, puzzle: Sensor, turn-off variant 1)
apparent KD of MS2 coat protein (input ligand: FMN 200 uM): 51.4 nM | apparent KD of MS2 coat protein (input ligand: none): 54.2 nM

GGGCCCGGAGGAUAUACAAUGCGCGCGCGAAAGUGUGUGUUACAUGAGGAUCACCCAUGUAGAAGGCCGGGCCC [-39.9, -36.7 kcal A 24%, 6,0] (Eterna round: R97, puzzle: Exclusion 2)
apparent KD of MS2 coat protein (input ligand: FMN 200 uM): 39.4 nM | apparent KD of MS2 coat protein (input ligand: none): 16.7 nM

UAGGUACAUGAGGAUCACCCAUGUGAGGAUAUAGAUGAAGAUUGCGAGAGGGAGAGGACUAGAAGGCACAGUGG [JR_Exclu1_Sub036] (puzzle: Exclusion 1)
apparent KD of MS2 coat protein [2]: 30.9 nM

UGCAUGUAAGGAUAUGCAACCUGCGCUCAUUAGCAGGUCAAGCAGAAGGUACAUGAGGAUCACCCAUGUGUCCG [Tebisoma] (Eterna round: R96, puzzle: Exclusion 4)
apparent KD of MS2 coat protein (input ligand: FMN 200 uM): 462 nM | apparent KD of MS2 coat protein [4]: 25.2 nM | apparent KD of MS2 coat protein (input ligand: none): 31.6 nM

UUUUUCAUCUAUGGGAGUGACAUGAGGAUCACCCAUGUGUGUCUUGUUUUUUGUUCGUCUAAGACUUUCUGAUCAGU [JR_SV3TOV1_Sub032] (puzzle: Sensor v3, turn-off variant 1)
apparent KD of MS2 coat protein [1]: 128 nM | apparent KD of MS2 coat protein [2]: 313 nM | apparent KD of MS2 coat protein [3]: 160 nM

CUCGUGCAGCUUUGCUGUACGAGUACAUGAGGAUCACCCAUGUAGGAUAUGGUACGCUUUGCGUGCCAGAAGGACGUGUGUUUG [JL EXNG3 1.40] (Eterna round: R96, puzzle: Exclusion NG 3)
apparent KD of MS2 coat protein (input ligand: FMN 200 uM): 221 nM | apparent KD of MS2 coat protein [4]: 27.6 nM | apparent KD of MS2 coat protein (input ligand: none): 39.4 nM

AGUACUAACACCGUUGUGUUAGUACAAUAAGCUUGUGAAACAUGAGGAUCACCCAUGUCCUCAUAAGCUCGUCUUAU [salish99_TOv2_r3_071] (puzzle: Sensor v3, turn-off variant 2)
apparent KD of MS2 coat protein [1]: 16.3 nM | apparent KD of MS2 coat protein [2]: 784 nM | apparent KD of MS2 coat protein [3]: 16.2 nM

AAGAGGCGGACAGGAUAUGGGAAAUUGUAAAGACCAGAAGGGUCGGCGAAAAUACAUGAGGAUCACCCAUGUGACUCAUGACCA [AK ExNG1-7.1] (Eterna round: R96, puzzle: Exclusion NG 1)
apparent KD of MS2 coat protein (input ligand: FMN 200 uM): 913 nM | apparent KD of MS2 coat protein [4]: 311 nM | apparent KD of MS2 coat protein (input ligand: none): 290 nM
